Test: soluble on expression in E. coli; label from the status in PepcDB or PDB records

Sequence	soluble on expression in E. coli
MKKILLSLLALGCFSAANAQTFRFGPTVGGNLNISDETKTKIGFAVGAKAEMNFNNPENGWFMDASVLFNNRNRQSENYFNNETKLTQCWKYSTYSLLVPVNVGYKFRLSDNLNLLAAVGPYADFGLTGTDKVTTTDAKGHSKEEKMSSNVYGDKLFNRVNFGFDAKVGVEIAKHYQLSLSYSRGFTNIFKGGLNTKAQDLQLGFSYMF	not soluble
MRRKSVLYLEVADQIKEDILSGKYPVGTFLPTETELEELFNVSKITIRRAIEMLATEEFVEKKSGRGTTVLSNRPYNKLSKAGTFTEFLNESGQKVTKKVLQVENLTLSKEMPAYQFLGEEVVHLSRLYLIDEQPYIYFNYYLPAAMKDVSLTEYKEESLYRLMDRHAIEIYKFEDRFEVATLTEAEQKMLQTTETTGLKRIRRSLSPTGRCVEYSEAIYNTKIHPYVIEYEA	not soluble
GPGSMASVSPSETGGTLITFLQQLRGTLVEIELKNASIVSGEIAYVDANMNTYMSHAKITSKGKNPVEVEEYMVRGSTIRYIIMPESLNTYDILKQASTKKNGASKK	soluble
MSLNRSSIAHFTASVFVLNESHDKILGIYHKIYQSWGWVGGHADGNADLLAVAVKEVQEETGLRSFKKLSEMPISIEALPVFGHHHRKYGYVSAHIHLNVTFLFEAKESDSLQKNTDETGGLAWIPLEKFSEKSSEKEMRVIYDKIITRIINKEGHHHHHH	not soluble
MPEFTNNPVAECDTVFSEKDGKKIVDFIIYPAKNGDQWVGTAVEAKSMGFGGELKVLVGFDAEGKIYNYSLLSHAETPGLGSKAADWFKEGNKGSIKGMNPGEQPLTVSKDGGQVDAITASTITSRAFLNAVNAAYGAYKGDGGANGTTGASQKAVQKSETAIVDSVVIKLEHHHHHH	soluble
MMGCLPTKQVGRSTHSLNPREAVALAAETSFTVNEVEALYDLFRKLSNSIIKDGLIHKEEFHLALFRNKKTNLFVDRVFDLFDQKGNGVIEFDEFVRSLSVFHPDAPEEQKAGFAFKLYDLRQTGFIERHELKEMVLALLDESDLNITSDAVEMIVDRTFDQADTKGDERIDQEEWNEFVKNNPYVLRNMTLPYLKDLTMVFPSFVIHSEVSEADMVA	soluble
MLCTVTEKLYYDDMYMKEFQAEVVSVDSNGIVLDRTAFYPTGGGQPNDTGIIVNDDKTYRVVDVQKHGDDVVHILESVDGLKAGDRIYGKIDWERRYAHMRYHTAIHILDGIVSAKHNSEALLTGGQIYEDRSRIDMNIENFTKEFVDQIIQEANEFISEGHRVYAENISREEAMKRPNLARTEPGRKLIESLPVVRIIVIEGLDEQSDGGTHVANTREVGKIVLRKIENKGRKNKRIEFELSPA	not soluble
MSGLKPVKPEGVQSEFSVRVAKRSDDIRYSVMMFNGMDKVDTSKWTIDSGVTMEREDNQRVILSTQTVQEYGEGSEYGKAAREEARRKKYGRQSKKYRLDNQPWKMAFTEPEGRQRQMRGIREGGANEHADYWVFLKPNQSSEFKAYKVDEWHKFLPAITHKTLDIDQAEEQFSQRYKVMNQFALKAAIQNQLSATDESEMTEQQKRLLKIKDEASSDDSDGDDEGEGGDDGKKAKNKKKKKKNAKPAKEKRQRVEDKDDVAKYESSDGEDEGREYDYISDSGTDSDREQVPSDEKIEKQLVGVAEEEGARESDSSESEDDLTKKLMKPYGDKKKGNDIEERDSSGTDSDVSDTEKLDSVVFMKANKDGEGGSGGTGKKRPPTEDSDLKMDNLGPSDAKKAKPAVKFEEGLNEETVRRYLRRKPHTTKELLHKMNGKCGNMSKSEMVTQLASILKAIEPNQSRQLKGKKEVLFFSLVNTIA	not soluble
LERRWRRRREAGAGAEAAAGSARPLGRQAAAARGSSPEAGAAAMAESIIIRVQSPDGVKRITATKRETAATFLKKVAKEFGFQNNGFSVYINRNKTGEITASSNKSLNLLKIKHGDLLFLFPSSLAGPSSEMETSVPPGFKVFGAPNVVEDEIDQYLSKQDGKIYRSRDPQLCRHGPLGKCVHCVPLEPFDEDYLNHLEPPVKHMSFHAYIRKLTGGADKGKFVALENISCKIKSGCEGHLPWPNGICTKCQPSAITLNRQKYRHVDNIMFENHTVADRFLDFWRKTGNQHFGYLYGRYTEHKDIPLGIRAEVAAIYEPPQIGTQNSLELLEDPKAEVVDEIAAKLGLRKVGWIFTDLVSEDTRKGTVRYSRNKDTYFLSSEECITAGDFQNKHPNMCRLSPDGHFGSKFVTAVATGGPDNQVHFEGYQVSNQCMALVRDECLLPCKDAPELGYAKESSSEQYVPDVFYKDVDKFGNEITQLARPLPVEYLIIDITTTFPKDPVYTFSISQNPFPIENRDVLGETQDFHSLATYLSQNTSSVFLDTISDFHLLLFLVTNEVMPLQDSISLLLEAVRTRNEELAQTWKRSEQWATIEQLCSEYPHPLPRHPVAGAGEQPTLHSSPLPVVPWIPHPAASWQVPSAMQRVETRPPCQARGRLR	soluble
MTVVNEYRPVEVFFGEGAVKKAGEVGRRFGFKALIVTGRKSTKESGALDKLINSLKQNQIEYVVFDEITPNPTDKQVNKGAEIAVNEKVDFIVGIGGGSVLDAAKAISIVSSNEGYAWDYVRYPEGSRLIPFLNRPVITIPTTAGTGSEVNRYSVLTNPMTKEKMVISHSLNYPKVALVDPELTYSMPPRLTALTGFDALMHALESLTNKRENFIAEEYSVKAIELIRKWLPVAFEEPENKEARRYMSYAAMLAGIAIDHLGVALIHAMEHPVSGHYPEVAHAEGLSALAPYITAFNYRGNPEKYALFARLMGEEEKPHKAVDALVKFIERFSLPKTLKELGVEKEKLPRLAEDVYMCARHSFAVNPVEVGMEEVEELYERAYEGRL	soluble
MISKYLVRDVMKKGVVEVTLDTKLSDVIKTMAKYDISSVVVSDGETFWGIITDTDVLKHYNDLDKTAEEIMTTNPITVSPEAPLEKAVEIMAEKGIHHLYVKSPCEDKIVGVLSSKDIIKLFSDLIE	soluble
MSLPVKNLRHLPKAHLHLHLEGAMRPATLTEFCERYKIKRPSDTRGKQFSNFAAFNEVYRAASDSIRTRQDLARVIQEVAEDAAKDGATWIEPAFDADRYTVLRADKSLRLFETPYEGWLFALKAARNASEKTGVGISFISAIDRTRPIDQANERAKLTTNLIASQKHQITAKNINGGEPYAGIIGLGLHGNEEGYPPEIFAEAFQIVTKKTEALSIPHAGEIAPTPGKGPESVEKAIDILSASRIQHGVLAIQDEVLIEKIKEKNICLDVCPSSNIQLSVFPNIQAHPLPLLIESGVSCSLGSDDPLLFGPSLLDEFELCREQMRLSDNTLAQLARNSFKYSGAPKKIVEQGLRDIDTWLNEGHHHHHH	soluble
MEEWIQYARDMAKAEKELEIELWVIISFYRTTEQGGKVLLFRYDLPRKVADKYDWVVRWRRARLTCQYPKGNVTHTYCLYDRHSGEDYSFGSCLSSLAAAKAQVTRMERRIREYTTWQKQNNLFFDEQTDEMLQKAVTKLKIKKENVQEAERRLQRKAEKHQREMRK	not soluble
MAHHHHHHMGVCLASLMVRRSRISEVPDRYIEERRRYGPVAVACAPPEDDVSSAVYRAAGITDEEHRRICKEWYEGENIVHRLEEICAERSDRRALAYRTVQKVETEKKTDSKGHTRNWEVTYLNDPTYMTYNEFWSRLIAFGKGLRELGLAEGAAVAIAEDVRWEWLASVLAGWTQGLISVTVYANLGEAALLHALKEAECPALICNGNAVKKLVPLLHKAKLNNTMVIYLDALPAGVDAEGMMLLSWTDVLQKGLQSCFSYTIPSDCNRTALIMYTSGTVAEPKGVIHTFGSLKTGAAALEDRLTELLGPKEEGETYLAYLPLAHILEFITEMIMLNRGSLLCYGSPRTLSDMSARPRGDLAEFRPMMFVGVPRIFETIRKNVESQLPPVGSVKRSIFDAAYAARLRAIEDGKDTPF	soluble
MTRTELTQYLADFLRVSAFKDYAPNGLQVEGKAEIRTIVTGVTACQALIDEAIRLKADAILVHHGFFWKSEPEVITGMKQRRIKALLAHDINLFGYHLPLDAHPMLGNNATLGRKLGILDAEAVEDVAQGLVWRGKLDLPMSASEFAAMLAEVLGRDPLHIGESSDEIQYLAWCTGGAQDYIDVAASLGVDAFISGEVSERTYHSAVEQGIHYYAAGHHATERFGIEALGRHLAREFNLVHHFVDITNPVLEHHHHHH	soluble
MASATTSSKNGKPLVVVYGDYKCPYCKELDEKVMPKLRKNYIDNHKVEYQFVNLAFLGKDSIVGSRASHAVLMYAPKSFLDFQKQLFAAQQDENKEWLTKELLDKHIKQLHLDKETENKIIKDYKTKDSKSWKAAEKDKKIAKDNHIKTVPTAFINGEKVEDPYDYESYEKLLKDKIKLEHHHHHH	soluble

Source: the DeepSol protein solubility set
